Measurements from patent publication US20230218519A1, “FLUID GEL COMPOSITIONS” (The University of Birmingham, priority 2020, published 2023).

Legend:
[1] = tested on: fibrin gel; experiment: Matrix breakdown assay (fibrin gel); type: biochemical; conditions: fibrin gel 8.5 mg/ml, 60° C., images at various timepoints
Experimental: • Add proteinase K (10 mg) to PBS to make a total volume of 1 ml. • Mix well on a vortex mixer until dissolved.
• Add 0.9 ml of 3% v/v PEG-DA fluid gel prepared according to Example 5.3 to an Eppendorf. • To each gel add 0.1 ml of active in PBS. • Mix well using a vortex mixer. • Refrigerate for 24 hours before testing.
• 0.5 ml of fibrin gel (8.5 mg/ml) was formed in the wells of a 24 well plate. • 0.5 ml of PBS was added to each well. • 0.1 ml of fluid gel containing active was added to a trans-well insert and placed above the fibrin gel. • Samples were incubated at 60° C. to activate the proteinase K. • Images were taken at various timepoints and compared to (a) the control wells containing only fibrin gel+PBS; and (b) wells containing fibrin gel+proteinase k (no fluid gel carrier).

[2] = Release assay from PEG-DA fluid gel (trans-well, UV/Vis); type: physicochemical; conditions: 3% v/v PEG-DA fluid gel (Example 5.3, 500 rpm), into PBS at 37° C., 5 hrs
Experimental: • Active amounts: […] • Standard concentrations of active in PBS were prepared. • Standards were pipetted into a quartz cuvette (1 mm pathlength). • UV/Vis spectroscopy was used to measure absorbance between 200 and 700 nm wavelength. • Curves were plotted and used to determine standard curves which were used to determine concentrations. • 0.5 ml PBS was added to the well of a 24 well plate. • The PBS was incubated at 37° C. to equilibrate. • 0.1 ml of the fluid gel containing active was placed in a trans-well insert. • The trans-well insert was placed into a well containing PBS. • After a given time period the trans-well insert was removed and placed in a fresh well of PBS. • The release media was then removed and analysed using […] spectroscopy. Concentrations were derived from the standard curves and cumulative release plotted as a function of time.

B1: proteinase K only: extracellular matrix remodelling agent, a proteinase (protein, UniProt P06873 106-384, looked up)
Proteinase K: AAQTNAPWGLARISSTSPGTSTYYYDESAGQGSCVYVIDTGIEASHPEFEGRAQMVKTYYYSSRDGNGHGTHCAGTVGSRTYGVAKKTQLFGVKVLDDNGSGQYSTIIAGMDFVASDKNNRNCPKGVVASLSLGGGYSSSVNSAAARLQSSGVMVAVAAGNNNADARNYSPASEPSVCTVGASDRYDRRSSFSNYGSVLDIFGPGTSILSTWIGGSTRSISGTSMATPHVAGLAAYLMTLGKTTAASACRYIADTANKGDLSNIPFGTVNLLAYNNYQA
- fibrin gel break down [1]: faster
- release of active agent from fluid gel [2]: able to release
